# In IntAct's records for PubMed 35512704:
# B1: Speckle-type POZ protein (Homo sapiens), O43791 (parent)
# chain: MSRVPSPPPPAEMSSGPVAESWCYTQIKVVKFSYMWTINNFSFCREEMGEVIKSSTFSSGANDKLKWCLRVNPKGLDEESKDYLSLYLLLVSCPKSEVRAKFKFSILNAKGEETKAMESQRAYRFVQGKDWGFKKFIRRDFLLDEANGLLPDDKLTLFCEVSVVQDSVNISGQNTMNMVKVPECRLADELGGLWENSRFTDCCLCVAGQEFQAHKAILAARSPVFSAMFEHEMEESKKNRVEINDVEPEVFKEMMCFIYTGKAPNLDKMADDLLAAADKYALERLKVMCEDALCSNLSVENAAEILILADLHSADQLKTQAVDFINYHASDVLETSGWKSMVVSHPHLVAEAYRSLASAQCPFLGPPRKRLKQS
# Variants of: B1
# Conditions: with ezh1_human EZH1, Q92800
# Sequence of ezh1_human EZH1, Q92800 (Q92800 whole entry): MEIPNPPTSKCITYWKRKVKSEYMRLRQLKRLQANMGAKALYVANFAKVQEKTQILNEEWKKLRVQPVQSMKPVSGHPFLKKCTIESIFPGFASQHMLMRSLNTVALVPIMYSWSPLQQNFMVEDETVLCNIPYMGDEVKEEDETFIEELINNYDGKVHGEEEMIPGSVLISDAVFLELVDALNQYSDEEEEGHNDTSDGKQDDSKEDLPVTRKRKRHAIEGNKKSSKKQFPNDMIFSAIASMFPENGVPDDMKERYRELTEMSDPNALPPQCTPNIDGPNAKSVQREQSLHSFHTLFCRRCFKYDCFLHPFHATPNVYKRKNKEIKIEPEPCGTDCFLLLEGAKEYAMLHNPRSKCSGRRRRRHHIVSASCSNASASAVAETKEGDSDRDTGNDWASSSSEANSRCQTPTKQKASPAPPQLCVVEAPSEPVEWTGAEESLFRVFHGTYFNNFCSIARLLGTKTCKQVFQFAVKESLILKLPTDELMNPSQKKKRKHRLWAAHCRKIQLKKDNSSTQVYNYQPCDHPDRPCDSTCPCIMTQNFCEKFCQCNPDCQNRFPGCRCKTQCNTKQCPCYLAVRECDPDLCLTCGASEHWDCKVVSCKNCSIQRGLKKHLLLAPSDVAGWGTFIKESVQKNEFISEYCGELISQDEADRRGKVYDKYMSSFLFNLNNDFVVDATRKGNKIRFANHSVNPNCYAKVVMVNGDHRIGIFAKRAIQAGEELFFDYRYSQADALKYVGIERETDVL
row,effect of a mutation on the interaction,Variant
1,with no effect,MSRVPSPPPPAEMSSGPVAESWCYTQIKVVKFSYMWTINNFSFCREEMGEVIKSSTFSSGANDKLKWCLRVNPKGLDEESKDYLSLCLLLVSCPKSEVRAKFKFSILNAKGEETKAMESQRAYRFVQGKDWGFKKFIRRDFLLDEANGLLPDDKLTLFCEVSVVQDSVNISGQNTMNMVKVPECRLADELGGLWENSRFTDCCLCVAGQEFQAHKAILAARSPVFSAMFEHEMEESKKNRVEINDVEPEVFKEMMCFIYTGKAPNLDKMADDLLAAADKYALERLKVMCEDALCSNLSVENAAEILILADLHSADQLKTQAVDFINYHASDVLETSGWKSMVVSHPHLVAEAYRSLASAQCPFLGPPRKRLKQS [Y87C]

# Variants of: B1
# Conditions: with ezh2_human EZH2, Q15910
# Sequence of ezh2_human EZH2, Q15910 (Q15910 whole entry, looked up): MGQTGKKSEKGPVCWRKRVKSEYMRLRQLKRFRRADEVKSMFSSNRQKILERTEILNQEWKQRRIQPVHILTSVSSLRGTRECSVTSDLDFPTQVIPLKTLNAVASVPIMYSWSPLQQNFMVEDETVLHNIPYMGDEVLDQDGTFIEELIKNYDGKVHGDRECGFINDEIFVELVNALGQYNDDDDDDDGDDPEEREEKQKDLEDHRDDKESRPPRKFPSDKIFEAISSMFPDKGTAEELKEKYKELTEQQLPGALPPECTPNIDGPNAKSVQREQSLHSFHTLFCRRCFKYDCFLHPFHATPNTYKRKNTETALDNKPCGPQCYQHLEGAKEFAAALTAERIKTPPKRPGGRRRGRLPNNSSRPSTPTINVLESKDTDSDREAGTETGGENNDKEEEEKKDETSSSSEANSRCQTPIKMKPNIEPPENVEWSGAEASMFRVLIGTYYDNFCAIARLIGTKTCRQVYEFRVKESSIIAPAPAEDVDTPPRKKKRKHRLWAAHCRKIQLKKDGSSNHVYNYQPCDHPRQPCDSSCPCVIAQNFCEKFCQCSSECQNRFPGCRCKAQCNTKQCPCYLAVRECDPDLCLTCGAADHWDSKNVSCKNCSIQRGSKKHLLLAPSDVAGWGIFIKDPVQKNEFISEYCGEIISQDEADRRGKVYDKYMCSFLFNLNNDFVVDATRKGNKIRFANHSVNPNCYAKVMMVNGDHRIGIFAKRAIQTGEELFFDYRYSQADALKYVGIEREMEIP
row,effect of a mutation on the interaction,Variant
1,with no effect,MSRVPSPPPPAEMSSGPVAESWCYTQIKVVKFSYMWTINNFSFCREEMGEVIKSSTFSSGANDKLKWCLRVNPKGLDEESKDYLSLCLLLVSCPKSEVRAKFKFSILNAKGEETKAMESQRAYRFVQGKDWGFKKFIRRDFLLDEANGLLPDDKLTLFCEVSVVQDSVNISGQNTMNMVKVPECRLADELGGLWENSRFTDCCLCVAGQEFQAHKAILAARSPVFSAMFEHEMEESKKNRVEINDVEPEVFKEMMCFIYTGKAPNLDKMADDLLAAADKYALERLKVMCEDALCSNLSVENAAEILILADLHSADQLKTQAVDFINYHASDVLETSGWKSMVVSHPHLVAEAYRSLASAQCPFLGPPRKRLKQS [Y87C]

# Variants of: B1
# Conditions: with facd2_human FANCD2, Q9BXW9
# Sequence of facd2_human FANCD2, Q9BXW9 (Q9BXW9 whole entry): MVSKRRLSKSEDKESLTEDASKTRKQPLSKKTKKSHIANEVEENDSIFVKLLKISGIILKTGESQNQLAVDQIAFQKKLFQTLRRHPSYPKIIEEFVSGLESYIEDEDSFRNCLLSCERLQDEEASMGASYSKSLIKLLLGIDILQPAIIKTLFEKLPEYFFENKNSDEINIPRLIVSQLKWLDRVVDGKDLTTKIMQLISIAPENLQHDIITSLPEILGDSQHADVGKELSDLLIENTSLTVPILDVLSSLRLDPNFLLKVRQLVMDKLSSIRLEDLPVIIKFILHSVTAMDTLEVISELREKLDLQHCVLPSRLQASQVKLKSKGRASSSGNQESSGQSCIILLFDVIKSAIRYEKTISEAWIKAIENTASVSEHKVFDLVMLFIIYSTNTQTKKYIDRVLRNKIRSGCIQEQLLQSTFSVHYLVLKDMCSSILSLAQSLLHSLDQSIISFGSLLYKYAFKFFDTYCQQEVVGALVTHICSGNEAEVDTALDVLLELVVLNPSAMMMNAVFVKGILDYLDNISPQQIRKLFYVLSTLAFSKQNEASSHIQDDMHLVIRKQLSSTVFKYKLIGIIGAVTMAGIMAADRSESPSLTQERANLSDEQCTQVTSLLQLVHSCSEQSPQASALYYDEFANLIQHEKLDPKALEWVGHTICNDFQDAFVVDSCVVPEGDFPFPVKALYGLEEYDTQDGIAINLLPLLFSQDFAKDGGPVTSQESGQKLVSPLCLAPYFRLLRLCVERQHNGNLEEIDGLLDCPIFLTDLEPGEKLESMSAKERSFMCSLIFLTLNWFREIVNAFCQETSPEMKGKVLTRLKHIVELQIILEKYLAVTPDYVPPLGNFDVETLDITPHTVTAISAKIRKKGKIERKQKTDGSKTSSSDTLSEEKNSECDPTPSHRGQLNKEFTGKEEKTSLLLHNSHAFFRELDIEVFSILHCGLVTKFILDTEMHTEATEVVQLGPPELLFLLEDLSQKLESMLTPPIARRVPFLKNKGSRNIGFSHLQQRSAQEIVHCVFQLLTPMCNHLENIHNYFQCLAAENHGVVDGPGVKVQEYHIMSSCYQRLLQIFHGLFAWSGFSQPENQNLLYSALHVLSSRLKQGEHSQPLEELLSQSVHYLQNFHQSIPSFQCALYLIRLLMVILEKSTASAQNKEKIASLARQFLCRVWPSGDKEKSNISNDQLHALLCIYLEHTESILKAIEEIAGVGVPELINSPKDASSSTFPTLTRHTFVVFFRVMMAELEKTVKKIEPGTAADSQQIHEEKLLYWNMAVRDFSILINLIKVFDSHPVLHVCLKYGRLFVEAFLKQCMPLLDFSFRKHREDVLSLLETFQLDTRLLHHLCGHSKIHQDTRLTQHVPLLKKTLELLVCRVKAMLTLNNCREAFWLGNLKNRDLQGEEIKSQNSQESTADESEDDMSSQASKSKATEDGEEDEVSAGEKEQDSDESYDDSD
row,effect of a mutation on the interaction,Variant
1,with no effect,MSRVPSPPPPAEMSSGPVAESWCYTQIKVVKFSYMWTINNFSFCREEMGEVIKSSTFSSGANDKLKWCLRVNPKGLDEESKDYLSLCLLLVSCPKSEVRAKFKFSILNAKGEETKAMESQRAYRFVQGKDWGFKKFIRRDFLLDEANGLLPDDKLTLFCEVSVVQDSVNISGQNTMNMVKVPECRLADELGGLWENSRFTDCCLCVAGQEFQAHKAILAARSPVFSAMFEHEMEESKKNRVEINDVEPEVFKEMMCFIYTGKAPNLDKMADDLLAAADKYALERLKVMCEDALCSNLSVENAAEILILADLHSADQLKTQAVDFINYHASDVLETSGWKSMVVSHPHLVAEAYRSLASAQCPFLGPPRKRLKQS [Y87C]

# Variants of: B1
# Conditions: with tnr6_human FAS
row,effect of a mutation on the interaction,Variant
1,with no effect,MSRVPSPPPPAEMSSGPVAESWCYTQIKVVKFSYMWTINNFSFCREEMGEVIKSSTFSSGANDKLKWCLRVNPKGLDEESKDYLSLCLLLVSCPKSEVRAKFKFSILNAKGEETKAMESQRAYRFVQGKDWGFKKFIRRDFLLDEANGLLPDDKLTLFCEVSVVQDSVNISGQNTMNMVKVPECRLADELGGLWENSRFTDCCLCVAGQEFQAHKAILAARSPVFSAMFEHEMEESKKNRVEINDVEPEVFKEMMCFIYTGKAPNLDKMADDLLAAADKYALERLKVMCEDALCSNLSVENAAEILILADLHSADQLKTQAVDFINYHASDVLETSGWKSMVVSHPHLVAEAYRSLASAQCPFLGPPRKRLKQS [Y87C]

# Variants of: B1
# Conditions: with fgf19_human FGF19, O95750
# Sequence of fgf19_human FGF19, O95750 (O95750 whole entry): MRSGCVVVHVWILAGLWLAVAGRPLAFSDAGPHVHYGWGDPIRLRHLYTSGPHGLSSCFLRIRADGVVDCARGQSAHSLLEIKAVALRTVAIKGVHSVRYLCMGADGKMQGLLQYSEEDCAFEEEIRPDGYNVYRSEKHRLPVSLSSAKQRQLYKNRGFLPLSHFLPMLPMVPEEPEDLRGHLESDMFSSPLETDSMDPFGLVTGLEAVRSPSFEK
row,effect of a mutation on the interaction,Variant
1,with no effect,MSRVPSPPPPAEMSSGPVAESWCYTQIKVVKFSYMWTINNFSFCREEMGEVIKSSTFSSGANDKLKWCLRVNPKGLDEESKDYLSLCLLLVSCPKSEVRAKFKFSILNAKGEETKAMESQRAYRFVQGKDWGFKKFIRRDFLLDEANGLLPDDKLTLFCEVSVVQDSVNISGQNTMNMVKVPECRLADELGGLWENSRFTDCCLCVAGQEFQAHKAILAARSPVFSAMFEHEMEESKKNRVEINDVEPEVFKEMMCFIYTGKAPNLDKMADDLLAAADKYALERLKVMCEDALCSNLSVENAAEILILADLHSADQLKTQAVDFINYHASDVLETSGWKSMVVSHPHLVAEAYRSLASAQCPFLGPPRKRLKQS [Y87C]

# Variants of: B1
# Conditions: with fgfp1_human FGFBP1, Q14512
row,effect of a mutation on the interaction,Variant
1,with no effect,MSRVPSPPPPAEMSSGPVAESWCYTQIKVVKFSYMWTINNFSFCREEMGEVIKSSTFSSGANDKLKWCLRVNPKGLDEESKDYLSLCLLLVSCPKSEVRAKFKFSILNAKGEETKAMESQRAYRFVQGKDWGFKKFIRRDFLLDEANGLLPDDKLTLFCEVSVVQDSVNISGQNTMNMVKVPECRLADELGGLWENSRFTDCCLCVAGQEFQAHKAILAARSPVFSAMFEHEMEESKKNRVEINDVEPEVFKEMMCFIYTGKAPNLDKMADDLLAAADKYALERLKVMCEDALCSNLSVENAAEILILADLHSADQLKTQAVDFINYHASDVLETSGWKSMVVSHPHLVAEAYRSLASAQCPFLGPPRKRLKQS [Y87C]

# Variants of: B1
# Conditions: with fgfr4_human FGFR4, P22455
row,effect of a mutation on the interaction,Variant
1,with no effect,MSRVPSPPPPAEMSSGPVAESWCYTQIKVVKFSYMWTINNFSFCREEMGEVIKSSTFSSGANDKLKWCLRVNPKGLDEESKDYLSLCLLLVSCPKSEVRAKFKFSILNAKGEETKAMESQRAYRFVQGKDWGFKKFIRRDFLLDEANGLLPDDKLTLFCEVSVVQDSVNISGQNTMNMVKVPECRLADELGGLWENSRFTDCCLCVAGQEFQAHKAILAARSPVFSAMFEHEMEESKKNRVEINDVEPEVFKEMMCFIYTGKAPNLDKMADDLLAAADKYALERLKVMCEDALCSNLSVENAAEILILADLHSADQLKTQAVDFINYHASDVLETSGWKSMVVSHPHLVAEAYRSLASAQCPFLGPPRKRLKQS [Y87C]

# Variants of: B1
# Conditions: with fumh_human FH
row,effect of a mutation on the interaction,Variant
1,with no effect,MSRVPSPPPPAEMSSGPVAESWCYTQIKVVKFSYMWTINNFSFCREEMGEVIKSSTFSSGANDKLKWCLRVNPKGLDEESKDYLSLCLLLVSCPKSEVRAKFKFSILNAKGEETKAMESQRAYRFVQGKDWGFKKFIRRDFLLDEANGLLPDDKLTLFCEVSVVQDSVNISGQNTMNMVKVPECRLADELGGLWENSRFTDCCLCVAGQEFQAHKAILAARSPVFSAMFEHEMEESKKNRVEINDVEPEVFKEMMCFIYTGKAPNLDKMADDLLAAADKYALERLKVMCEDALCSNLSVENAAEILILADLHSADQLKTQAVDFINYHASDVLETSGWKSMVVSHPHLVAEAYRSLASAQCPFLGPPRKRLKQS [Y87C]

# Variants of: B1
# Conditions: with foxo3_human FOXO3, O43524
# Sequence of foxo3_human FOXO3, O43524 (O43524 whole entry): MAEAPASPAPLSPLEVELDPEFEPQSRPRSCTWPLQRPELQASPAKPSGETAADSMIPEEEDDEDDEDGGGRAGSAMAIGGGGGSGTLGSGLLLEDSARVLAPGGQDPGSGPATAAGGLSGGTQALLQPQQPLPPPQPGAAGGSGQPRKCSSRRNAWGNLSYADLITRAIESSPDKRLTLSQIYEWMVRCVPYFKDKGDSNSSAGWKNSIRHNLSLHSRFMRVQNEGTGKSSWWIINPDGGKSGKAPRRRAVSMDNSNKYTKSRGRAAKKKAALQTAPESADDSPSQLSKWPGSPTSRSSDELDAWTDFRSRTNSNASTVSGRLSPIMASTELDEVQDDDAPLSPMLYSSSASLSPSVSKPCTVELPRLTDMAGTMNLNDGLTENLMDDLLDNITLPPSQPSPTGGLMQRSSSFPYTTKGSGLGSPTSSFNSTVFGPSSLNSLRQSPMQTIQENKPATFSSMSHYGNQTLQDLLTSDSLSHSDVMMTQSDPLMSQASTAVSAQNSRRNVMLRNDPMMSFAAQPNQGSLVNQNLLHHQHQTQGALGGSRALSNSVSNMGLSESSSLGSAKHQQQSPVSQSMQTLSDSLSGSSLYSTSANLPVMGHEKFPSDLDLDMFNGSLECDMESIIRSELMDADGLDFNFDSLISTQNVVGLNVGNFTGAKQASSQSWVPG
row,effect of a mutation on the interaction,Variant
1,with no effect,MSRVPSPPPPAEMSSGPVAESWCYTQIKVVKFSYMWTINNFSFCREEMGEVIKSSTFSSGANDKLKWCLRVNPKGLDEESKDYLSLCLLLVSCPKSEVRAKFKFSILNAKGEETKAMESQRAYRFVQGKDWGFKKFIRRDFLLDEANGLLPDDKLTLFCEVSVVQDSVNISGQNTMNMVKVPECRLADELGGLWENSRFTDCCLCVAGQEFQAHKAILAARSPVFSAMFEHEMEESKKNRVEINDVEPEVFKEMMCFIYTGKAPNLDKMADDLLAAADKYALERLKVMCEDALCSNLSVENAAEILILADLHSADQLKTQAVDFINYHASDVLETSGWKSMVVSHPHLVAEAYRSLASAQCPFLGPPRKRLKQS [Y87C]

# Variants of: B1
# Conditions: with fzr1_human FZR1, Q9UM11
row,effect of a mutation on the interaction,Variant
1,with no effect,MSRVPSPPPPAEMSSGPVAESWCYTQIKVVKFSYMWTINNFSFCREEMGEVIKSSTFSSGANDKLKWCLRVNPKGLDEESKDYLSLCLLLVSCPKSEVRAKFKFSILNAKGEETKAMESQRAYRFVQGKDWGFKKFIRRDFLLDEANGLLPDDKLTLFCEVSVVQDSVNISGQNTMNMVKVPECRLADELGGLWENSRFTDCCLCVAGQEFQAHKAILAARSPVFSAMFEHEMEESKKNRVEINDVEPEVFKEMMCFIYTGKAPNLDKMADDLLAAADKYALERLKVMCEDALCSNLSVENAAEILILADLHSADQLKTQAVDFINYHASDVLETSGWKSMVVSHPHLVAEAYRSLASAQCPFLGPPRKRLKQS [Y87C]

# Variants of: B1
# Conditions: with gbra6_human GABRA6, Q16445
row,effect of a mutation on the interaction,Variant
1,with no effect,MSRVPSPPPPAEMSSGPVAESWCYTQIKVVKFSYMWTINNFSFCREEMGEVIKSSTFSSGANDKLKWCLRVNPKGLDEESKDYLSLCLLLVSCPKSEVRAKFKFSILNAKGEETKAMESQRAYRFVQGKDWGFKKFIRRDFLLDEANGLLPDDKLTLFCEVSVVQDSVNISGQNTMNMVKVPECRLADELGGLWENSRFTDCCLCVAGQEFQAHKAILAARSPVFSAMFEHEMEESKKNRVEINDVEPEVFKEMMCFIYTGKAPNLDKMADDLLAAADKYALERLKVMCEDALCSNLSVENAAEILILADLHSADQLKTQAVDFINYHASDVLETSGWKSMVVSHPHLVAEAYRSLASAQCPFLGPPRKRLKQS [Y87C]

# Variants of: B1
# Conditions: with gata1_human GATA1, P15976
# Sequence of gata1_human GATA1, P15976 (P15976 whole entry): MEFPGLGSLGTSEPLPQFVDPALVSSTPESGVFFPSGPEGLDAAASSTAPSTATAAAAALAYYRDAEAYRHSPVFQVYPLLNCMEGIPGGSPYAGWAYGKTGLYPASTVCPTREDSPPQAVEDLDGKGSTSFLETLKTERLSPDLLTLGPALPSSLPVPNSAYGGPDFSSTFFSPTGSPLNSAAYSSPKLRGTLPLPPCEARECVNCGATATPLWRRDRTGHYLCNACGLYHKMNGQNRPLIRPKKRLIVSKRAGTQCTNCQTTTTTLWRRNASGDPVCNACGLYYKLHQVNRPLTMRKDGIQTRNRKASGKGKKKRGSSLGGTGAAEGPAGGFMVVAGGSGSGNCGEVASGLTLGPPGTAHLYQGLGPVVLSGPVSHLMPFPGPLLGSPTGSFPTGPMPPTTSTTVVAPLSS
row,effect of a mutation on the interaction,Variant
1,with no effect,MSRVPSPPPPAEMSSGPVAESWCYTQIKVVKFSYMWTINNFSFCREEMGEVIKSSTFSSGANDKLKWCLRVNPKGLDEESKDYLSLCLLLVSCPKSEVRAKFKFSILNAKGEETKAMESQRAYRFVQGKDWGFKKFIRRDFLLDEANGLLPDDKLTLFCEVSVVQDSVNISGQNTMNMVKVPECRLADELGGLWENSRFTDCCLCVAGQEFQAHKAILAARSPVFSAMFEHEMEESKKNRVEINDVEPEVFKEMMCFIYTGKAPNLDKMADDLLAAADKYALERLKVMCEDALCSNLSVENAAEILILADLHSADQLKTQAVDFINYHASDVLETSGWKSMVVSHPHLVAEAYRSLASAQCPFLGPPRKRLKQS [Y87C]

# Variants of: B1
# Conditions: with p66b_human GATAD2B
row,effect of a mutation on the interaction,Variant
1,with no effect,MSRVPSPPPPAEMSSGPVAESWCYTQIKVVKFSYMWTINNFSFCREEMGEVIKSSTFSSGANDKLKWCLRVNPKGLDEESKDYLSLCLLLVSCPKSEVRAKFKFSILNAKGEETKAMESQRAYRFVQGKDWGFKKFIRRDFLLDEANGLLPDDKLTLFCEVSVVQDSVNISGQNTMNMVKVPECRLADELGGLWENSRFTDCCLCVAGQEFQAHKAILAARSPVFSAMFEHEMEESKKNRVEINDVEPEVFKEMMCFIYTGKAPNLDKMADDLLAAADKYALERLKVMCEDALCSNLSVENAAEILILADLHSADQLKTQAVDFINYHASDVLETSGWKSMVVSHPHLVAEAYRSLASAQCPFLGPPRKRLKQS [Y87C]

# Variants of: B1
# Conditions: with gna11_human GNA11, P29992
# Sequence of gna11_human GNA11, P29992 (P29992 whole entry): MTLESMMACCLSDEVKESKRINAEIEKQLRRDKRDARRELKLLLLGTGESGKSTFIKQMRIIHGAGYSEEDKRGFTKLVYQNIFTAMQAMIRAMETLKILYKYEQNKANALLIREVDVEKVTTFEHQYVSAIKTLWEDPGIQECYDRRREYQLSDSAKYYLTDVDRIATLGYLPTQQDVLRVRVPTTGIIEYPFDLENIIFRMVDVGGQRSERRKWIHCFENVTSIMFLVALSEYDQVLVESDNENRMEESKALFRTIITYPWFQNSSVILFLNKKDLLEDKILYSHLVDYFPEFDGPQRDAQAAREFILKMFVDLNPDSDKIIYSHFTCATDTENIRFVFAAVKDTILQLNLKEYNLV
row,effect of a mutation on the interaction,Variant
1,with no effect,MSRVPSPPPPAEMSSGPVAESWCYTQIKVVKFSYMWTINNFSFCREEMGEVIKSSTFSSGANDKLKWCLRVNPKGLDEESKDYLSLCLLLVSCPKSEVRAKFKFSILNAKGEETKAMESQRAYRFVQGKDWGFKKFIRRDFLLDEANGLLPDDKLTLFCEVSVVQDSVNISGQNTMNMVKVPECRLADELGGLWENSRFTDCCLCVAGQEFQAHKAILAARSPVFSAMFEHEMEESKKNRVEINDVEPEVFKEMMCFIYTGKAPNLDKMADDLLAAADKYALERLKVMCEDALCSNLSVENAAEILILADLHSADQLKTQAVDFINYHASDVLETSGWKSMVVSHPHLVAEAYRSLASAQCPFLGPPRKRLKQS [Y87C]

# Variants of: B1
# Conditions: with gna13_human GNA13, Q14344
# Sequence of gna13_human GNA13, Q14344 (Q14344 whole entry): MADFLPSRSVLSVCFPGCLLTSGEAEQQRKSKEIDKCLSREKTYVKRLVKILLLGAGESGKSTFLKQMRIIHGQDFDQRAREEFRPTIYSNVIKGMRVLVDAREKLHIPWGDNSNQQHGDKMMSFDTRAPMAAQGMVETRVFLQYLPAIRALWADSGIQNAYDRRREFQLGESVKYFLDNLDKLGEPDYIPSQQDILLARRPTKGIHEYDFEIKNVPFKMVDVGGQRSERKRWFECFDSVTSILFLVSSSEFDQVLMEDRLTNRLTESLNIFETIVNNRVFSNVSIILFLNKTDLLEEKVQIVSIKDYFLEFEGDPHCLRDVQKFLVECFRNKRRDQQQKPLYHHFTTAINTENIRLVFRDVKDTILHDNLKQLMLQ
row,effect of a mutation on the interaction,Variant
1,with no effect,MSRVPSPPPPAEMSSGPVAESWCYTQIKVVKFSYMWTINNFSFCREEMGEVIKSSTFSSGANDKLKWCLRVNPKGLDEESKDYLSLCLLLVSCPKSEVRAKFKFSILNAKGEETKAMESQRAYRFVQGKDWGFKKFIRRDFLLDEANGLLPDDKLTLFCEVSVVQDSVNISGQNTMNMVKVPECRLADELGGLWENSRFTDCCLCVAGQEFQAHKAILAARSPVFSAMFEHEMEESKKNRVEINDVEPEVFKEMMCFIYTGKAPNLDKMADDLLAAADKYALERLKVMCEDALCSNLSVENAAEILILADLHSADQLKTQAVDFINYHASDVLETSGWKSMVVSHPHLVAEAYRSLASAQCPFLGPPRKRLKQS [Y87C]
